This is an account of results in paper PMC6881179.

The Kd is a measure of binding affinity in units of concentration.

Assay in all cases: SPR
For orientation: SPR reads the build-up and loss of mass on a sensor chip optically.

Assay [1] concerns the target BES1 transferrin receptor (glycosylated heterodimer of BES1 ESAG6 and BES1 ESAG7) (Trypanosoma brucei) (UniProt Q8WPU1).
Assay [2] deals with BES17e6BES1e7 chimera (BES17 ESAG6 with BES1 ESAG7) (Trypanosoma brucei) (UniProt Q8WPU1).
For assay [3], the target named is BES1e6BES17e7 chimera (BES1 ESAG6 with BES17 ESAG7) (Trypanosoma brucei) (UniProt Q8WPU1).
The target of assay [4] is BES17 transferrin receptor (glycosylated heterodimer of BES17 ESAG6 and BES17 ESAG7) (Trypanosoma brucei) (UniProt Q8WPU1).

On to “cow transferrin (from UniProt Q29443 20-704) (ligand)”, for which the Kd in assay [1] is 80.1 nM.
In the case of “human holo-transferrin (from UniProt P02787 20-698) (ligand)”, the dissociation constant Kd was found to be 353 nM in assay [2], 243 nM in assay [3] and 13.1 nM in assay [4].
